The record followed here is PMC3334367 (Molecular Cell, 2012).

The experiment addresses T1, GST-RNC (GST fused N-terminal RNC domain of Kog1, amino acids 1-637) (yeast, UniProt P38873 1-637).
T1 sequence (looked up): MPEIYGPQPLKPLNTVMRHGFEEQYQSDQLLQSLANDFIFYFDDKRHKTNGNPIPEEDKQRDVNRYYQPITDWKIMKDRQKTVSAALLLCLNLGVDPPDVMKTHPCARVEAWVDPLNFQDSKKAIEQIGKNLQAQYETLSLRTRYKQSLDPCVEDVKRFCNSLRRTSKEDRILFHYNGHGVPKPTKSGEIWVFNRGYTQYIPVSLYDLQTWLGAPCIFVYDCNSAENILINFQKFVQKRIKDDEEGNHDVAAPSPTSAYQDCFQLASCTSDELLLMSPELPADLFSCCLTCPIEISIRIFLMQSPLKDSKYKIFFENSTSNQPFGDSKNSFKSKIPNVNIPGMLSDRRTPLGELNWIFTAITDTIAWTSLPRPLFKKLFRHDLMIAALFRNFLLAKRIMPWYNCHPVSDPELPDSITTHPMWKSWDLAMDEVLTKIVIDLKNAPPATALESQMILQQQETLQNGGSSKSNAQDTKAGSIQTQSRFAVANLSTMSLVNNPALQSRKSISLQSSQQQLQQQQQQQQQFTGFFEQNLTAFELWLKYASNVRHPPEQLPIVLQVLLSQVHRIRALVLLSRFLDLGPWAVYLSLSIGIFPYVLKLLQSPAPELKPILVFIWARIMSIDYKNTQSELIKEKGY
In words: pull-down.

B1: His tagged recombinant Tap42 (natural protein, yeast, UniProt Q04372 1-366, looked up)
chain: MASVTEQFNDIISLYSTKLEHTSLRQDSPEYQGLLLSTIKKLLNLKTAIFDRLALFSTNETIDDVSTASIKFLAVDYYLGLLISRRQSNDSDVAQRQSMKLIYLKKSVESFINFLTLLQDYKLLDPLVGEKLGNFKDRYNPQLSELYAQPKNNKDLSGAQLKRKEKIELFQRNKEISTKLHCLELELKNNDEDHDHDELLRELYLMRLHHFSLDTINNIEQNLFECEMLSNFLKNSVHEVKSSGTQIRKESNDDDSTGFTDKLENINKPLIDKKGQVLRNFTLVDKRQQLQQKVRGYGQYGPTMSVEEFLDKEFEEGRVLQGGEEPEQAPDEENMDWQDRETYKAREWDEFKESHAKGSGNTMNRG
Regarding B1, the binding result is given as “binds”.

B2: His tagged recombinant Rho1 (natural protein, yeast, UniProt P06780 1-209, looked up)
chain: MSQQVGNSIRRKLVIVGDGACGKTCLLIVFSKGQFPEVYVPTVFENYVADVEVDGRRVELALWDTAGQEDYDRLRPLSYPDSNVVLICFSIDLPDSLENVQEKWIAEVLHFCQGVPIILVGCKVDLRNDPQTIEQLRQEGQQPVTSQEGQSVADQIGATGYYECSAKTGYGVREVFEAATRASLMGKSKTNGKAKKNTTEKKKKKCVLL
In the case of B2, the binding result is listed as “binds”.
